This note sets out measurements from CN105713087A (BEIJING HEALTH GUARDS BIOTECHNOLOGY CO LTD, dated 2016).

In assay [1] the target is T1, HPV31 VLP (human papillomavirus type 31, UniProt P17388 1-504).
T1 sequence: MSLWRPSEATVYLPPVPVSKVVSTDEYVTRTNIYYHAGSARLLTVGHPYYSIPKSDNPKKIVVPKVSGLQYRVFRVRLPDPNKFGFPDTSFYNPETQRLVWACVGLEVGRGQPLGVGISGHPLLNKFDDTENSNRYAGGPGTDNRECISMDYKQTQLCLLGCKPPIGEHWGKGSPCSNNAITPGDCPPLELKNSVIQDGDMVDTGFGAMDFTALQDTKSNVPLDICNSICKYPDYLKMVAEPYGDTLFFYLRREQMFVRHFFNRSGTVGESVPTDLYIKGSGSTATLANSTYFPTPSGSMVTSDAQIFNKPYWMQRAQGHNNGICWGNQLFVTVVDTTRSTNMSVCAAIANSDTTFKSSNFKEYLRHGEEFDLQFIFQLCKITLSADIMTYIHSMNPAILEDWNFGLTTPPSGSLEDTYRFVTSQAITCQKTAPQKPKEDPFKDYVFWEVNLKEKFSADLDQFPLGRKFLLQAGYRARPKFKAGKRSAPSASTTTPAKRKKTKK
In words: SPR (BIACORE 3000).

Assay [2] deals with T2, HPV45 VLP (human papillomavirus type 45, UniProt P36741 27-539).
T2 sequence: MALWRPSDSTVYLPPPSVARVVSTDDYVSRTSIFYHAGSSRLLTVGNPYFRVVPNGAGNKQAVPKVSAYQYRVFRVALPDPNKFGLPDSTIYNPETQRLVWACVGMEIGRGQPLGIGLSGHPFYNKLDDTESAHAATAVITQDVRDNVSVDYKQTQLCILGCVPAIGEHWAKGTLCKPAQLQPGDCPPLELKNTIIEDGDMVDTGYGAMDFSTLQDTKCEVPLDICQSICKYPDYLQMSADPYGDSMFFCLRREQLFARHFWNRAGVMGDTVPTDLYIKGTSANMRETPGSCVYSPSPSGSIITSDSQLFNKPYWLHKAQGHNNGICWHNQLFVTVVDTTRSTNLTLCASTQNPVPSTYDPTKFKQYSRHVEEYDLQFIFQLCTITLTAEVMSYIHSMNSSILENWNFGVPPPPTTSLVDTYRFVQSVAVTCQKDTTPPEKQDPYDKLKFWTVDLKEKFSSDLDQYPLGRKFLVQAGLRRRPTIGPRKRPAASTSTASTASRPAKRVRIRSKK
The assay can be described thus: SPR (BIACORE 3000).

Assay [3] deals with T3, HPV11 VLP (human papillomavirus type 11, UniProt P04012 1-501).
T3 sequence: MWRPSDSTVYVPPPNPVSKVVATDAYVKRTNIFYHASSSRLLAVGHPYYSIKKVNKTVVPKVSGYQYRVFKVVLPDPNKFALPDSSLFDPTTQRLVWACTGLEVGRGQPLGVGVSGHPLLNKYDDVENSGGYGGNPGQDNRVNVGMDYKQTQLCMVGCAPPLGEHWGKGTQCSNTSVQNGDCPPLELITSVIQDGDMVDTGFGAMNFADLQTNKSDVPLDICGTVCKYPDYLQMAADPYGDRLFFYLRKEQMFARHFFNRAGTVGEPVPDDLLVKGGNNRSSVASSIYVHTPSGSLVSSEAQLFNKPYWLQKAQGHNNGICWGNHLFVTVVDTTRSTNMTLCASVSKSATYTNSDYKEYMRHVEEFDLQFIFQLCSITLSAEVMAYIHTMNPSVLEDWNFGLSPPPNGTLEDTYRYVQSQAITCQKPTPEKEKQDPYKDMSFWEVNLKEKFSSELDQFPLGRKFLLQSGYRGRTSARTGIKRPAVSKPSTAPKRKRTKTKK
The assay can be described thus: SPR (BIACORE 3000). In general terms: SPR reads the build-up and loss of mass on a sensor chip optically.

Assay [4] has as its target T4, HPV6 VLP (human papillomavirus type 6, UniProt P69899 1-500).
T4 sequence: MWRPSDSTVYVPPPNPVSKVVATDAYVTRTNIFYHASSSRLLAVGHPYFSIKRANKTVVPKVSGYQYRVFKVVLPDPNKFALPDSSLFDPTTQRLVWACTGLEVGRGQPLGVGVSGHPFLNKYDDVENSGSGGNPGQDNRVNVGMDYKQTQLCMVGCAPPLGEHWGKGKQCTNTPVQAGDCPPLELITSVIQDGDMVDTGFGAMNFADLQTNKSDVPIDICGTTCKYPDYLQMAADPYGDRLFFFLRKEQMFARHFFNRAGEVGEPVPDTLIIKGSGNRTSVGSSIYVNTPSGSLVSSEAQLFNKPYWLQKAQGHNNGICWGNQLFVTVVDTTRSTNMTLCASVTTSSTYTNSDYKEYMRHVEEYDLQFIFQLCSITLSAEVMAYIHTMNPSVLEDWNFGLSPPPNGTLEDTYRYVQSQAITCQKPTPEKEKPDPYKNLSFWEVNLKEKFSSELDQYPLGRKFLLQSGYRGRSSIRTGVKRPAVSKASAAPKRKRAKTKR
In words: SPR (BIACORE 3000).

The target of assay [5] is T5, HPV-18 L1 VLP (human papillomavirus type 18, UniProt P06794 62-568).
T5 construct: also called HPV18VLP
T5 sequence: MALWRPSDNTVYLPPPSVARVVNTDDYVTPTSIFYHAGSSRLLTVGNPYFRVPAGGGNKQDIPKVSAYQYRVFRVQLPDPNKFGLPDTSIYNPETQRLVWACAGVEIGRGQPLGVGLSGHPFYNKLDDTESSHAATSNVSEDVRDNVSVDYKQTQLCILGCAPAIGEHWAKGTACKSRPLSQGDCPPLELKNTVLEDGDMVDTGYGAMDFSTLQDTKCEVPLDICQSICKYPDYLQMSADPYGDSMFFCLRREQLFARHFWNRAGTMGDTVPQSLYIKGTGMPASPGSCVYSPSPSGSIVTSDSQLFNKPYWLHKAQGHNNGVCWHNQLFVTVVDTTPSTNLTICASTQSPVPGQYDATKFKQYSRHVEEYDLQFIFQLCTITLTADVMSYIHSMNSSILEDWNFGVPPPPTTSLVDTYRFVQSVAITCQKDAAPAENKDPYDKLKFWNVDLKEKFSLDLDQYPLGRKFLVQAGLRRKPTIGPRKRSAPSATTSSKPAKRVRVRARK
The assay can be described thus: indirect ELISA on coated VLP. Background: In an ELISA, binding on a coated surface is turned into a signal by an enzyme label.

Assay [6] has as its target T6, HPV-16 L1 VLP (human papillomavirus type 16, UniProt P03101 1-505).
T6 construct: also called HPV16VLP
T6 sequence: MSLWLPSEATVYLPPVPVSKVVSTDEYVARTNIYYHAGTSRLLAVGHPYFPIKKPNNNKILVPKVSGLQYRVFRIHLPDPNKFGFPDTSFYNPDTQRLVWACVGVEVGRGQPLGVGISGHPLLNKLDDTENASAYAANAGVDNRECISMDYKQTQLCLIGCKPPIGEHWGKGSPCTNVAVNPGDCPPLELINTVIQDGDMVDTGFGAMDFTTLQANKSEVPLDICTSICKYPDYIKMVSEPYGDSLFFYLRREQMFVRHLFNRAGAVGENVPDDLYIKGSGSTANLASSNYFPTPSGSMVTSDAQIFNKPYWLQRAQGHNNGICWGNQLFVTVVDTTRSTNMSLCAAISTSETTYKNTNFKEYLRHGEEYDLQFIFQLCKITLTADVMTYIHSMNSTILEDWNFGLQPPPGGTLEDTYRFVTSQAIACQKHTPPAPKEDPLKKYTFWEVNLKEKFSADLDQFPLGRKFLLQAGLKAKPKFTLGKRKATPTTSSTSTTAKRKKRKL
The assay can be described thus: indirect ELISA on coated VLP.

B1: 单克隆抗体2F7 (杂交瘤细胞株2F7, CGMCC No.11295) (antibody, V domains shown)
VH: VQLQQSGPGLVQPSQSLSITCTVSGFSLTSYGVHWVRQSPGKGLEWLGVIWSGGSTDYNAAFISRLSISKDNSKSQVFFKMNSLQANDTAIYYCARRDGNSRYAMDYWGQGTTVTVSS
VL: DIQLTQSPSSMSASLGDRITITCQATQDIVKNLNWYQQKPGKPPSFLIYYATELAEGVPSRFSGSGSGSDYSLTISNLESEDFADYYCLQFYEFPLTFGAGTKLEI
notes: also called 克隆2F7
With B1, the binding result in assay [1] is given as “no binding (tested: 20nmol/L)”; in assay [2], “no binding (tested: 20nmol/L)”; in assay [3], “no binding (tested: 20nmol/L)”; in assay [4], “no binding (tested: 20nmol/L)”; in assay [5] it was “no binding (tested: 0.3μg/ml)”; in assay [6], “no binding (tested: 0.3μg/ml)”.
